Our source for the Kd, koff and kon values is article PMC3735183.

In general, Kd refers to the concentration at which binding is half-saturated. Read a high Kd as lower affinity. As usually defined, the koff is the first-order rate constant of dissociation. A word on the kon: it is the second-order rate constant of association.

This experiment has as its target human secretory immunoglobulin A (SIgA) (human) (UniProt P01833). Briefly: SPR. In general terms: SPR reads the build-up and loss of mass on a sensor chip optically.
Sequence of UniProt P01833 (P01833 whole entry, looked up): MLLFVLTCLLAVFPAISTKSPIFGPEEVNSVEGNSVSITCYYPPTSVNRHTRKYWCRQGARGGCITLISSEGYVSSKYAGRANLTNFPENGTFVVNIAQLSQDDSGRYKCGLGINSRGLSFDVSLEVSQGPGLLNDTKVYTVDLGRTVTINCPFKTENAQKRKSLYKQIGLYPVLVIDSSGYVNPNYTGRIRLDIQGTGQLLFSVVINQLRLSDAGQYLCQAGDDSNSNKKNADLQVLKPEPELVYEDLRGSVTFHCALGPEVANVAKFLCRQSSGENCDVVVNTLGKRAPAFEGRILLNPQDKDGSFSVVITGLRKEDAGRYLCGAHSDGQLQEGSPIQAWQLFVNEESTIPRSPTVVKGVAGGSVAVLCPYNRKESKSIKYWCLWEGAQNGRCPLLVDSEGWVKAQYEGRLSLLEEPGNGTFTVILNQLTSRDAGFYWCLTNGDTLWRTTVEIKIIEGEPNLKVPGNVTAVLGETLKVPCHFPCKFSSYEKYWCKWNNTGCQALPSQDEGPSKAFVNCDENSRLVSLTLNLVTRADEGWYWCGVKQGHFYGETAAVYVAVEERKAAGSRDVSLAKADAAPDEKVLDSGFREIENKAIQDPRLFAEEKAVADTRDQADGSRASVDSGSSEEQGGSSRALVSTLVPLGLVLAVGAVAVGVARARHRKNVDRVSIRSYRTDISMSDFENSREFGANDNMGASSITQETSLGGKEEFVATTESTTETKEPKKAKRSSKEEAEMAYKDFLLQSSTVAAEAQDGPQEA

“EsiB (E. coli secretory immunoglobulin A-binding protein), recombinant, without signal peptide (natural protein)”: the Kd came out at 30.2 µM, the koff was found to be 0.042 s⁻¹ and the kon was 1390 M⁻¹ s⁻¹.
